Reference: patent US20170349638A1 (published 2017)
Where no end group is shown, it is not given here.

T1: GST-HDMX (human (HDMX), UniProt O15151 1-134)
T1 chain: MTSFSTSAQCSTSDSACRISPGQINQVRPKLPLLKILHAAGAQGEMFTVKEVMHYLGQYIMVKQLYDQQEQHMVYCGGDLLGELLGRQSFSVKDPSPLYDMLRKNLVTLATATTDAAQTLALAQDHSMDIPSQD

B1: GST-hDM2 (other)
chain: MCNTNMSVPTDGAVTTSQIPASEQETLVRPKPLLLKLLKSVGAQKDTYTMKEVLFYLGQYIMTKRLYDEKQQHIVYCSNDLLGDLFGVPSFSVKEHRKIYTMIYRNLVVVNQQESSDSGTSVSENRCHLEGGSDQKDL
B2: GST-hDMX (other)
chain: T1 chain

Columns and labels:
SP-5 = experiment: Affinity selection MS
SP-44 = experiment: Affinity selection MS
GST-HDMX = target: T1, GST-HDMX; experiment: Competition ELISA

Binder | Kd (SP-5) | Kd (SP-44) | IC50 (GST-HDMX)
B1 | 25 nM | 25 nM | 
B2 | 90 nM | 180 nM | 
QSQQTFANLWRLLAQN (not fully specified (residues 7, 14, N-terminus, C-terminus, bridges)) [peptide 46 (Table 9), Ac-QSQQTF%r8NLWRLL%QN-NH2] |  |  | 175 nM
